B1: library; numbered along this chain (parent)
chain: MRKPRAAVGSGHRKQAASQEGRQKHAKNNSQAKPSACDGLARQPEEVVLQASVSSYHLFRDVAEVTAFRGSLLSWYDQEKRDLPWRRRAEDEMDLDRRAYAVWVSEVMLQQTQVATVINYYTGWMQKWPTLQDLASASLEEVNQLWAGLGYYSRGRRLQEGARKVVEELGGHMPRTAETLQQLLPGVGRYTAGAIASIAFGQATGVVDGNVARVLCRVRAIGADPSSTLVSQQLWGLAQQLVDPARPGDFNQAAMELGATVCTPQRPLCSQCPVESLCRARQRVEQEQLLASGSLSGSPDVEECAPNTGQCHLCLPPSEPWDQTLGVVNFPRKASRKPPREESSATCVLEQPGALGAQILLVQRPNSGLLAGLWEFPSVTWEPSEQLQRKALLQELQRWAGPLPATHLRHLGEVVHTFSHIKLTYQVYGLALEGQTPVTTVPPGARWLTQEEFHTAAVSTAMKKVFRVYQGQQPGTCMGSKRSQVSSPCSRKKPRMGQQVLDNFFRSHISTDAHSLNSAAQ

Variants of: B1
Assay: 8OG:A repair function score (normalized; synonymous = 0, nonsense = -1) (normalized log-likelihood score); higher = more repair activity (WT-like)
Details: with 8OG:A DNA repair reporter (GFP) in HEK-293 MUTYH KO cells
Outline: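 MUTYH knockout HEK-293 cells carrying lentiviral MUTYH cDNA NNN codon-scan libraries were grown with 10 pg/ml doxycycline and co-transfected with mCherry and a GFP reporter of 8OG:A repair. Viable mCherry+ cells were sorted at 72 h into GFP+ (repair) and GFP− bins, with three replicates per tile, and tile amplicons were sequenced. Rosace fitness scores for each tile were turned into a normalized repair function score anchored on the synonymous and nonsense distributions. Synonymous medians were set to 0 and nonsense medians to -1, and variants below 300 counts per million at the start were dropped.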

Going from S227Y to S227I, the “8OG:A repair function score” value rises from -0.307 to -0.232.

Compared with S227A, S227G is lower in “8OG:A repair function score” value: -0.0215 for the first, -0.0911 for the second.

Compared with S227K, S227L is lower in “8OG:A repair function score” value: 0.0372 for the first, -0.119 for the second.

Going from S227N to S227Q, the “8OG:A repair function score” value falls from 0.126 to -0.0353.

Going from S227F to S227T, the “8OG:A repair function score” value rises from -0.188 to 0.0756.

Compared with S227W, S227C is higher in “8OG:A repair function score” value: -0.244 for the first, -0.0498 for the second.

First: S227D
Second: S227H
The “8OG:A repair function score” value of the first is higher: 0.49 for the first, -0.197 for the second.

First: S227V
Second: S227E
The “8OG:A repair function score” value of the first is higher: -0.241 for the first, -0.452 for the second.

Compared with S227R, S227P is lower in “8OG:A repair function score” value: -0.103 for the first, -0.658 for the second.

Going from P225W to P225R, the “8OG:A repair function score” value rises from -0.322 to -0.147.

Compared with P225A, P225H is lower in “8OG:A repair function score” value: -0.238 for the first, -0.374 for the second.

Going from P225D to P225C, the “8OG:A repair function score” value rises from -0.53 to -0.182.

First: P225M
Second: P225N
The “8OG:A repair function score” value of the first is higher: -0.186 for the first, -0.234 for the second.

Going from P225Q to P225E, the “8OG:A repair function score” value falls from -0.132 to -0.604.

Compared with P225Y, P225T is lower in “8OG:A repair function score” value: 0.0138 for the first, -0.0501 for the second.

Going from P225S to P225V, the “8OG:A repair function score” value rises from -0.0602 to -0.0099.

Going from P225L to P225K, the “8OG:A repair function score” value falls from 0.119 to -0.284.

Compared with P225G, P225F is higher in “8OG:A repair function score” value: -0.342 for the first, -0.222 for the second.

Going from P225I to I221K, the “8OG:A repair function score” value falls from 0.0375 to -0.986.

Compared with I221V, I221R is lower in “8OG:A repair function score” value: -0.347 for the first, -0.972 for the second.

Compared with I221G, I221L is higher in “8OG:A repair function score” value: -0.993 for the first, -0.449 for the second.

Going from I221Y to I221H, the “8OG:A repair function score” value falls from -0.63 to -0.866.

Compared with I221C, I221M is higher in “8OG:A repair function score” value: -0.728 for the first, -0.523 for the second.

Compared with I221P, I221F is higher in “8OG:A repair function score” value: -1.01 for the first, -0.597 for the second.

Compared with I221D, I221N is higher in “8OG:A repair function score” value: -1.02 for the first, -0.933 for the second.

Compared with I221A, I221Q is lower in “8OG:A repair function score” value: -0.993 for the first, -1.03 for the second.

Going from I221S to I221E, the “8OG:A repair function score” value rises from -0.991 to -0.989.

Going from I221T to I221W, the “8OG:A repair function score” value rises from -0.889 to -0.622.

Compared with T228P, T228V is lower in “8OG:A repair function score” value: 0.212 for the first, 0.153 for the second.

Going from T228D to T228A, the “8OG:A repair function score” value rises from -0.245 to 0.0743.

Going from T228E to T228I, the “8OG:A repair function score” value falls from 0.0521 to -0.152.

Going from T228S to T228Y, the “8OG:A repair function score” value falls from 0.124 to -0.0271.

First: T228N
Second: T228F
The “8OG:A repair function score” value of the first is higher: -0.0359 for the first, -0.051 for the second.

Going from T228G to T228K, the “8OG:A repair function score” value rises from 0.0678 to 0.0779.

First: T228C
Second: T228M
The “8OG:A repair function score” value of the first is lower: -0.0551 for the first, 0.0193 for the second.

Going from T228Q to T228R, the “8OG:A repair function score” value rises from -0.217 to 0.329.

Going from T228L to T228W, the “8OG:A repair function score” value falls from 0.00837 to -0.106.

Compared with T228H, D224M is lower in “8OG:A repair function score” value: 0.457 for the first, -0.995 for the second.

D224F and D224T are the same in “8OG:A repair function score” value: -0.955 for the first, -0.955 for the second.

Going from D224Q to D224Y, the “8OG:A repair function score” value falls from -0.87 to -0.939.

Compared with D224L, D224A is lower in “8OG:A repair function score” value: -0.947 for the first, -0.954 for the second.

First: D224P
Second: D224V
The “8OG:A repair function score” value of the first is higher: -0.861 for the first, -0.988 for the second.

Compared with D224I, D224S is lower in “8OG:A repair function score” value: -0.934 for the first, -0.964 for the second.

First: D224G
Second: D224C
The “8OG:A repair function score” value of the first is higher: -0.936 for the first, -0.955 for the second.

Compared with D224N, D224W is lower in “8OG:A repair function score” value: -0.918 for the first, -0.942 for the second.

Compared with D224H, D224K is lower in “8OG:A repair function score” value: -0.924 for the first, -0.928 for the second.

Going from D224R to D224E, the “8OG:A repair function score” value rises from -0.978 to -0.936.

First: S226M
Second: S226G
The “8OG:A repair function score” value of the first is lower: -0.173 for the first, -0.00798 for the second.

Compared with S226Q, S226P is lower in “8OG:A repair function score” value: 0.176 for the first, -0.642 for the second.

First: S226H
Second: S226K
The “8OG:A repair function score” value of the first is higher: 0.0371 for the first, 0.026 for the second.

First: S226R
Second: S226E
The “8OG:A repair function score” value of the first is lower: 0.00193 for the first, 0.00732 for the second.

First: S226F
Second: S226C
The “8OG:A repair function score” value of the first is lower: -0.371 for the first, -0.132 for the second.

First: S226N
Second: S226Y
The “8OG:A repair function score” value of the first is higher: 0.261 for the first, -0.198 for the second.

Compared with S226L, S226V is higher in “8OG:A repair function score” value: -0.314 for the first, -0.247 for the second.

Compared with S226W, S226A is higher in “8OG:A repair function score” value: -0.231 for the first, 0.0017 for the second.

Compared with S226T, S226I is lower in “8OG:A repair function score” value: -0.0677 for the first, -0.309 for the second.

First: S226D
Second: L229P
The “8OG:A repair function score” value of the first is lower: -0.146 for the first, -0.112 for the second.

Compared with L229E, L229T is lower in “8OG:A repair function score” value: -0.064 for the first, -0.124 for the second.

Compared with L229F, L229S is higher in “8OG:A repair function score” value: -0.0261 for the first, 0.0557 for the second.

First: L229M
Second: L229D
The “8OG:A repair function score” value of the first is higher: -0.0886 for the first, -0.158 for the second.

Going from L229N to L229H, the “8OG:A repair function score” value rises from -0.25 to 0.287.

Going from L229K to L229C, the “8OG:A repair function score” value falls from 0.076 to -0.201.

Compared with L229A, L229R is higher in “8OG:A repair function score” value: 0.087 for the first, 0.134 for the second.

First: L229I
Second: L229G
The “8OG:A repair function score” value of the first is lower: -0.0293 for the first, -0.0206 for the second.

Compared with L229Q, A223V is lower in “8OG:A repair function score” value: -0.161 for the first, -0.38 for the second.

Compared with A223H, A223K is higher in “8OG:A repair function score” value: -0.196 for the first, -0.118 for the second.

Compared with A223M, A223C is higher in “8OG:A repair function score” value: -0.321 for the first, -0.145 for the second.

Compared with A223R, A223D is lower in “8OG:A repair function score” value: 0.032 for the first, -0.631 for the second.

First: A223Q
Second: A223Y
The “8OG:A repair function score” value of the first is higher: -0.0573 for the first, -0.608 for the second.

Going from A223I to A223W, the “8OG:A repair function score” value falls from -0.454 to -0.73.

Compared with A223S, A223T is higher in “8OG:A repair function score” value: -0.27 for the first, -0.118 for the second.

Compared with A223F, A223G is higher in “8OG:A repair function score” value: -0.516 for the first, -0.111 for the second.

Going from A223N to A223L, the “8OG:A repair function score” value falls from -0.465 to -0.498.

Compared with A223P, A223E is higher in “8OG:A repair function score” value: -0.418 for the first, -0.219 for the second.

Compared with G222E, G222N is lower in “8OG:A repair function score” value: -0.565 for the first, -0.593 for the second.

Compared with G222D, G222R is higher in “8OG:A repair function score” value: -0.733 for the first, -0.436 for the second.

First: G222W
Second: G222Q
The “8OG:A repair function score” value of the first is higher: -0.349 for the first, -0.443 for the second.

Compared with G222V, G222Y is higher in “8OG:A repair function score” value: -0.622 for the first, -0.461 for the second.

First: G222A
Second: G222K
The “8OG:A repair function score” value of the first is higher: -0.213 for the first, -0.495 for the second.

Going from G222H to G222P, the “8OG:A repair function score” value falls from -0.56 to -0.731.

First: G222T
Second: G222I
The “8OG:A repair function score” value of the first is higher: -0.547 for the first, -0.608 for the second.

Going from G222F to G222M, the “8OG:A repair function score” value rises from -0.564 to -0.381.

Compared with G222C, G222S is higher in “8OG:A repair function score” value: -0.509 for the first, -0.439 for the second.

G222L was tested, and the “8OG:A repair function score” value was -0.623.

From the supplement of paper PMC11908140
